Reference: a protein production outcome set (Wang et al. 2014)

assay: label from the status in PepcDB records

Sequence	protein production
MDLHGCAKNQVDAELIIGIMENLSWKNTSDPDEADLIIVNSCGFINSAKEESINAVLQAKAAHPKAKVLLAGCLAERYADILKNDLPEADGIFGNGNLSLLPQLIDSMFPKKTSDEKFIEKTLVPPQIGICGGERPKILNFPRSTYIKITEGCDNFCSFCAIPIIRGRLRSRPIKDICDEIKTFLKKSFYEFNLIGQDLAAYQTGKDDLSEDELHRENCSGLALLLKSISKIKGNFKIRLLYIHPDHFPLDILPIMTADKRFLPYFDIPFQSGAQKIIRAMNRNGAAEVYLDIIKNIREAFEKTNSPYGEPQIRTTFLVGFPGETDEDFNETIKFLKELRPLWSGGFTYSREEDTPSYSFKGKVPKKTAEARLAEIQNAQTSITEKKLDSFIGKEIEVLVEELIQAEDKTFLALGRAWFQAPEVDGAVVLNFNLNKKDIDGNPIAPGSIVKARIAARNGFDLEAVAV	failed
MDLHSLCVDSHALRRDGMRFLHTADWQLGMTRHFLAGDAQPRYSAARRDAVAGLKALAADVGAEFVVVAGDVFEHNQLAPQIVGQSLEAMRVIGLPVYLLPGNHDPLDASSVYTSTLFRAERPDNVVVLDRAGVHEVRPGVQIVAAPWRSKAPTTDPVAEVLAGLPTDAAIRLLVAHGGVDALDPDHDKPSLIRLAALDDALTRQAIHYVALGDKHSLTQVGSSGRVWYSGAPEVTNFDDVEPDPGHVLVVDIDESDPRHPVTVDARRIGRWRFVTLHHQVDTSRDIADLDLNLDLMTDKDRTVVRLALTGSLTVTDRAALDTCLDKYARLFAWLGLWERHTDLAVIPVDAEFTDLGIGGFAAAAVDELVATARGGDDESAVDAQAALALLLRLADRGAALEHHHHHH	failed
MDLICMYVFKGEESFGESIDVYGDYLIVKVGTEFLAVPKKSIKSVEDGRIVIGEFDEEEARELGRKWLEEKSKPVTLEELKSYGFGEEGE	not failed
MDLIEPAVRVFLGVFFLMIGLQFAARTLGLYSRLGFSHINYGKTGTATWWHRHTFNLFRAAILLMCLARIWVDLDAWLGVFPLLYHWPVLLAGAVLLLVSYTSVNYLQAYMHEDWRSGIDDHHGSGHLLTDGPFGRSRNPLFLAVMTGQLGFFLALPSVFSLVCLVTGVLVIMRQAREEEKALAKRFGEQYEAYCKRVPRWF	failed
MDLKESQEFSGLIAGKPRISYQNDYGGHRTNLHLLDSRLWIILSGQAAILGFCGNTVLAEDESMKSKSGDNMDESGNTGLEKIEDGSVVSNIHTSKWRVFTDSGRDYFFQGKLEPAERLFGSAIQEAKEGFGEKDPHVASACNNLAELYRVKKEFDKAEPLYLEAVSILEEFYGPDDVRVGATLHNLGQLYLVQRKLEEARACYEIRRCVFAVISYVKNYDELES	failed
MDLSTAFPTLVTDLPAAFSMSVVGGVGLAMIVLDAFRNDHPAIPWLGVAALGVSAVWEITHLGAPPSTVFFETLRTGGFVAFINLIILLTGLATILLSVPYLNQLRYDYGEVYALIMFCTVGMIMLGSANNMVSIFLGLETMSVCLYVLTGFIREDEGAVESALKYFLLGAFSTGFFLYGIALMYGATGTMALPAMAAAELGTLSTRLLFWGGFALFLVGFFFKVSAAPFHMWTPDVYQGAPTPLTGYMSTATKAAAFAALILVLVHAVPGGEWQLSVAAVAVLTMVIGNVMALAQTNVKRLLAYSSIAHAGYLLVGLSAGTSAGYAGALFYLLVYAVMNIGAFGVMSMLEWDGKEGREQTLSSLAGIANDRPVLGSTMGVFMLSLIGFPPLGGFIGKYLVFAPAVDAGLTWLVVIGVLMSALSAYYYLRVVYVFWMQSADEVAATDPVRAAAFPRATVAATGTLVVCAVALVVLGVFFGGVLETTLGFFETTAMATAP	failed
MDLTISNELTGEIYGPIEVSEDMALTDLIALLQADCGFDKTKHDLYYNMDILDSNRTQSLKELGLKTDDLLLIRGKISNSIQTDAATLSDEAFIEQFRQELLNNQMLRSQLILQIPGLNDLVNDPLLFRERLGPLILQRRYGGYNTAMNPFGIPQDEYTRLMANPDDPDNKKRIAELLDQQAIDEQLRNAIEYTPEMFTQVPMLYINIEINNYPVKAFVDTGAQTTIMSTRLAKKTGLSRMIDKRFIGEARGVGTGKIIGRIHQAQVKIETQYIPCSFTVLDTDIDVLIGLDMLKRHLACVDLKENVLRIAEVETSFLSEAEIPKSFQEGLPAPTSVTTSSDKPLTPTKTSSTLPPQPGAVPALAPRTGMGPTPTGRSTAGATTATGRTFPEQTIKQLMDLGFPRDAVVKALKQTNGNAEFAASLLFQ	failed
MDLTKQFPRSPVDRLGGMDHLKRVIDKARAHVAGTLGEYTYNCPLDQAFFSFFGLDHEKFAEAVKSRPQDQDMLAWVHSQSPRSKNPKEVESFNREYESRSPDSPEKWDYFRSVRDSLAPGRTDITTWVKLLDLEEKRPV	not failed
MDMLFQWLLLTAAVAAGWAVGRYGNRSGRASRAIMDEDSVRDRLQFLFTNYSDQAVDNFVQSLAVNKDTVSLHLSIGSHFRNKGETDRAILIHQNLLARPELPARYSPQVTQELAMDYLNAGLLDRAEALFHQLMGDREYGRRSAIALIELYQQEREWEKAAQVAKTLTRSDADPATFKALAYITCELSDGALSRNDDRWTAQKLAKEALDYDRSCVRATLLLMKLQIRQGNFREAANQSLKIFDQNPEFGPEAIDRLMKLEREHGDVSRLYKKLRKLYEQYPSTSLLLALVESVERSSGRPAAIDLLRMELETRPSVRGLLRLVEMAGYEKGMTTDEGRLVSRIGHLILANRPVYRCVSCGFSGQQLHWLCPSCKQWETVRPIQGVEAE	failed
MDMRVSWFLLLLPFVLTSALAATSAASHASGPPAFMGQLTLLLLVAGATAFASFRLGLVPIIGFLFAGVLAGPSALGIIDDPALIGAASEIGVMLLLFTIGIEFSLDKLARIFRLIFVGGGLQVLLTVAAVTGVLLAFGVSLPNAVFTGFLLSLSSTAIVTKILESRGGVGSPTGQASLGILIFQDLAVVVMVLLVPMLAGQGGGAGGLVVALLKAGGIVAAVLLLARRVVPKLLEVVARTCSQEIFLLSTLSLCFATAYLTSLAGVSLALGAFLAGLLVSESRFGQQAFGEILPLQILFSAAFFLSVGLQLDLGFLWTHLPLVLGAVAVFAVLKALAAALSVRLLGFPLATAAATGWLLAQVGEFSFVLESSGRALGLSPAGLGETGTQTFIAATVLLMALTPVMATLGERLGALGRARPAPTAAPAEAPTRAEPNPEAPLAHLSGHVLVAGFGDHARRLVKGLAAQQVPFGVLTLSPDGAAQVTAHGYPVLIGDYARAGLLGDAGLASARALVVLDDVPEMTARVIGVARTLNPELTIVAHTDEPGEIATLRGVGATHVLTSTDAVARGVLGL	failed
MDMTYNMRNAMASSRNMEEPQYDMSTIDLTQNSMNTNYLMNGSVLTNAYNNDYIVNNRDKYTGDMISQLKIDQGIPTYSHTLPMNGTTLADTNDSLNIQGMMRTNMDTTGFDGYSHIMNYNNTQNTIQTNPITYRMEDYNNLNNDVMYINPTTGEKFSAEYVNNIPTNDSDNMLYSNNFKNNSINMNTLLNSHYNNLPYPMPIYESMNNPQMYMQHMNQKQTVNIPLQHGEKKSAARNISTVNKRRIKTKKFFPCC	failed
MDMYHTKILKAIESEDYISVRRRVLRQLVESLIYEGIITPARIEKEEQILFLIQGLDEDNKSVTYECYGRERITFGRISIDSLIVRVQDGKQEIQSVAQFLEEVFRVVNVEQTKLDSFIHELEQTIFKDTIAQYERCNKLKYTQKSYDELENHLIDGHPYHPSYKARIGFQYRDNFRYGYEFMRPIKLIWIAAHKKNATVGYENEVIYDKILKSEVGERKLEAYKERIHSMGCDPKQYLFIPVHPWQWENFIISNYAEDIQDKGIIYLGESADDYCAQQSMRTLRNVTNPKRPYVKVSLNILNTSTLRTLKPYSVASAPAISNWLSNVVSQDSYLRDESRVILLKEFSSVMYDTNKKATYGSLGCIWRESVHHYLGEQEDAVPFNGLYAKEKDGTPIIDAWLNKYGIENWLRLLIQKAIIPVIHLVVEHGIALESHGQNMILVHKEGLPVRIALKDFHEGLEFYRPFLKEMNKCPDFTKMHKTYANGKMNDFFEMDRIECLQEMVLDALFLFNVGELAFVLADKYEWKEESFWMIVVEEIENHFRKYPHLKDRFESIQLYTPTFYAEQLTKRRLYIDVESLVHEVPNPLYRARQLNIQKSVATGGNYANC	failed
MDNALTFVISTLCILALCYRFYGVFFVRKVLRADDSVVTPSHTFEDGKNYVPTKKWVNAGQHFAAIAAAGPLVGPVLAAQFGYLPGFLWLLVGCVVGGAVHDTVVLFASMKHNGKSLSNVAKAELGPVAGWCTGLAMLFIITITMAGLSMVVVHALERNPWGTFAVFMTIPIAIAVGLYERFTGNHKGATWVGIIAIMVAVLAGPYIQGTLLGDWLTLRVDSVALALPIYAFFASALPVWLLLTPRGYLSSFMKIGVFGALVVGVVIINPTIQFPALTDFIHGGGPVLAGPVWPFISITIACGAISGFHAFIGSGTTPKLVDKWSDIRPVAFGAMLAECMVAVLALVAATALHPADYFAINASPAAFASLGMEVVDLPHLSQEIGMDLAGRTGGAVTLAVGMTFIFTKLPWFATLSSYFFQFVIMFEAVFILTAVDSGTRVARYLIQDLGGDLYAPLKRLDWIPGSIGASVAACALWGYLLTSGDINSVWALFGVSNQLMASIGLIIGATIILRVAAKRIYMLTCLIPLAYLFVTVNYAGYWMIANVYLNTQARGYNPINAGISAIMMVLGLIILITAFGKWKTMLALPKSLRSGEVPAPSLP	failed
MDNDRDTVEFWSSLFQSFADSEPKDNPYPVVRSPIMTMSTPMAIDEPVEPWKVLEYGGKEVRPMAIDEPAEPWKALEYGGKDVRPMAIDVPAEPWKVGGKEAQPANAAAEAGYKNVNTDQEKSTQKATEKVIM	not failed
MDNITFPSQGSLSSSNQTFDSQSAARNSNAPPEYVNQGLLLWNQTRERWVGKDKPNNPVDHNQGAKLNWNTATYDSLLGSNKLFPQPIPLTEMVDFLVDIWEQEGLYD	failed
MDNLFYYMIIQNDRIQPIIVRQPQTVIIHSQPKLPITLDLPPQNIILKNEDPQPIIVRQSNPNIIIEKSQNDFYNHPNFHIGLHDKVNSMSDINNTNIKEQPIKDNMIEDMQNINNADTQFYYNNQNVINENNVLPTHYSYLNNGVFNKEHNYDPYNFTLYSNK	failed
MDPAGASVASAIGGEGEKFAVGNIYSVKVITGDEFRGIGTKPRPGHLKNTRMVNASFITGLSYLGKTEDPLDSDNFSVDLNGLRAKEALAIRQAEADAERMGVGVTAEAQSIFDALSKTLPVQWENSDILVMKEVRVRSPYLSDCVFGGTDAANNRVKKVLELERRRLQLFGT	failed
MDPAVFEEWMMIILVTVLIGFMGFIVWDLAKKSKAGKFGTLILFFVLGLGVLAFIIKSVVVGFLEGV	failed
MDPIESVEYNGFETSNGNVDHGWKKVVYPKRHRKQKQADQATANGGKTVASNGTVANGGDNVFRSLEEQAEDRRRRILAAKMTAIDSDDDGVVRSKHRSNGYGDDGYDFDGSDDEIATLKVEEVKKPKPKKEKKPKVSLPEAASKIDPLNLEAFLVEASESYASQPEIQLMRFADYFGRALSGVSSVQFPWVKMFKESPLSKLIEVPLAHIPEPVYKTSVDWINHRPIEALGAFVLWAFDCILTDLAAQQGGAKGGKKGGQQTTSKSQVAIFVALAMVLRRKPDALTNVLPTLRENPKYQGQDKLPVTVWMMAQASQGDIAVGLYSWAHNLLPVVGNKNCNPQSRDLILQLVEKILTNPKARTILVNGAVRKGERLIPPPSFEILLRLTFPASSARVKATERFEAIYPLLKEVALAGAPGSKAMKQVTQQIFTFALKLAGEGNPVLAKEATAIAIWSVTQNFDCCKHWDNLYKENLEASVAVLKKLVEEWKEHSVKLSSSPNDALTLNRTMKSFRLKNEEVITEGGANASLYKEADKSCKTISGRLSRGSGCLKGTAITLVFLAAAGAAAAAVLSSNPEVTNELKNLVDSLELHEYINKYTEVISTALKK	failed
